B1: IKZF1 (parent)
chain: RDPFECNMCGYHSQDRYEFSSHIT
B2: ZNF207 (parent)
chain: YQGGPPRPPMGMRPPVMSQGGRY

Variants of: B1
Assay: protein stability index of a GFP-peptide fusion (GPS, HEK-293T) (PSI 1-6); higher = more stable
Details: c terminus: a fixed tail appended
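Further: lentivirally expressed fusions sorted by FACS into six bins by GFP to DsRed ratio, PSI derived from sequencing read proportions per bin multiplied by bin number.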

Protein stability index of substitutions, site by site:
H22: V 1.75; S 1.88; E 2.55; D 2.7; C 2.54; F 1.97; Q 2.02; K 1.92; I 1.83; N 2.28; L 1.81; M 1.79; G 2.17; P 2.12; W 1.65; T 2.08; R 1.58; Y 2.84; A 2.15
G10: W 1.73; Y 2.66
T24: Q 2.18; A 2.42; G 1.74; N 2.23; F 1.95; H 2.38; P 2.32; M 1.57; D 2.68; L 2.19; W 2.71; R 2.24; C 5.1; Y 1.39; V 1.85; S 1.75; I 2.28; K 2.52; E 2.47
F19: W 1.44; D 3.29; G 3.13; S 2.6; I 2.4; E 3.35; N 3.27; T 2.94; C 2.39; A 2.59; Y 2.47; V 2.08; H 3.13; L 1.61; R 2.38; P 3; Q 3.14; K 3.06; M 2.28
S21: P 2.68; E 2.27; D 2.17; T 2.35; K 2.28; Y 1.57; L 2.03; Q 1.83; M 1.84; W 2.31; A 1.81; C 2.21; R 1.84; N 2.3; I 2.28; F 2.06; G 2.38; V 2.36; H 2.63
S13: Q 2.39; D 2.49; Y 1.92; A 2.26; M 1.66; W 2.28; T 2.1; F 1.78; E 2.53; K 2.1; P 3; V 1.91; I 1.91; H 3.15; C 1.74; L 1.75; R 2.04; N 2.39; G 2.17
E18: W 1.51; M 1.54; N 1.54; L 2.21; R 1.99; D 2.38; P 1.67; G 2.63; S 2.11; Q 1.79; T 1.54; A 1.91; H 2.08; K 1.74; Y 1.43; V 2.72; I 2.18; F 2.39; C 1.91
Y11: E 3.29; K 3.13; D 3.51; L 2.65; G 3.49; I 1.86; H 2.71; W 1.45; F 2.01; M 2.59; V 2.45; C 2.13; A 2.58; R 2.62; N 2.71; S 2.62; P 2.69; Q 2.61; T 2.6
S20: K 1.93; H 2.21; L 2.44; N 2.08; D 2.3; C 3.08; F 1.59; A 2.13; R 2.08; M 2.06; Y 1.71; W 2.15; T 2.04; Q 1.94; G 2.05; P 2.51; I 2.06; E 2.64; V 2.16
Y17: G 2.19; W 2.54; L 2.22; N 2.83; E 3; T 1.89; P 2.81; A 2.28; Q 2.1; R 2.1; S 2.43; C 2.38; I 2.16; H 2.81; D 3.1; M 2.16; K 2.21; V 1.76; F 2.07
D15: I 1.56; Y 1.66; H 1.68; P 2.01; S 1.54; W 2.13; A 1.98; N 2.17; M 2.02; V 1.8; E 1.87; Q 2.34; C 2.32; G 1.98; L 1.81; T 2.12; R 2.14; F 1.76; K 1.65
Q14: P 2.3; T 2.17; S 2.43; E 2.29; Y 2.31; F 1.47; H 2.22; A 1.98; W 1.22; G 2.38; L 1.93; C 1.87; V 1.85; M 1.86; K 1.97; I 2.13; N 2.42; R 2.25; D 2.09
R16: F 2.21; V 2.42; G 2.56; N 2.57; L 2.12; K 2.01; T 2.6; S 1.98; A 2.3; W 2.03; P 2.5; Q 2.33; M 2.78; Y 1.75; E 3.15; H 2.51; D 2.85; I 2.74; C 2.23
I23: P 2.35; G 2.43; T 2.36; F 2.03; V 2.43; E 3.48; D 3.32; Q 2.21; S 2.5; K 2.75; C 2.59; L 2.15; Y 1.82; W 1.77; M 2.27; A 2.23; N 2.28; H 2.57; R 2
H12: N 2.72; I 2; G 2.25; R 2.23; E 2.39; S 2.06; L 2.69; A 2.6; M 1.5; T 2.53; P 2.49; K 2.27; C 1.82; Y 1.97; W 1.63; Q 3.01; V 1.75; D 2.69; F 2.15

Variants of: B2
Assay: as above
Details: c terminus: native

Protein stability index: each site, then its substitutions
Q2: W 2.1; F 1.65; L 2.34; N 2.45; A 2.19; M 2.05; G 3.02; E 2.4; D 2.16; Y 2.89; P 1.72; K 2.57
G3: N 1.38; Q 2.32; E 2.33; S 1.47; I 3.37; K 2.89; Y 2.42; A 2.62; V 1.43; M 1.59; L 2.31; H 1.5; W 1.39
P5: I 1.71; G 2.99; Q 2.62; T 3.09; H 1.92; L 2.34; A 2.27; E 2.81; K 2.56; M 1.22; C 1.61; V 2.82; N 2.12
G4: C 2.52; N 3.23; D 3.56; S 3.05; M 1.46; V 2.74; I 2.34; Q 3.54; K 2.78; R 2.51; Y 2.05; W 3.5; H 2.6; E 2.69; L 1.5
Y1: K 3.55; G 3.87; A 3.11; T 2.64; W 2.49; S 1.67; C 3.27; I 2.89; R 3.21; M 3.87; Q 3.65; N 3.31; H 2.91

From the supplement of paper PMC10567573
